We go through 1 protein from PMC12593362, “Mapping the Role of Monomer Conformation in the Amyloid Formation of α‑Synuclein Splice Variants” (Journal of the American Chemical Society, 2025).

The series deals with the molecule itself. As to the kind of experiment: thioflavin T fluorescence + pelleting assay + negative stain TEM; de novo self-assembly into amyloid fibrils; 100 μM monomer in 20 mM sodium phosphate pH 7.4 with 0 mM NaCl, 37 °C, shaking with a Teflon polyball.

B1: α-synuclein splice variant lacking the residues encoded by exons 3 and 5 (αSynΔ3Δ5) (natural protein)
chain: not shown
notes: made from the αSynΔ3 construct with the exon 5 deletion primers; natural splice isoform; No tag is named; Used as soluble monomer and as sonicated fibril seeds; source: E. coli BL21 DE3, purified (boiling, ammonium sulfate precipitation, anion exchange, SEC)
For B1, the binding result is “binds”.
